One molecule from patent publication US20260250399A1 (VIRIDIAN THERAPEUTICS, published 2026) can be followed below.

The target in assay [1] is T1, IGF-1R on cells (A549 human lung adenocarcinoma cells; primary human ocular choroid fibroblasts, HOCF) (human, UniProt P08069 31-1367).
T1 construct: whole, on cells; the same molecule is used there; also called IGFR 1; IFG1R
As to the kind of experiment: flow cytometry on A549 cells, binding dose response curve. The protocol: (§1) Cell binding: A549 human lung adenocarcinoma cells or primary human ocular choroid fibroblasts (HOCF) were incubated with varying concentrations of VRDN-5000 or teprotumumab. A single dose 50 nM IgG1 isotype control was used as negative control. Unbound antibody was removed by washing, and the cells were incubated with an Alexa Fluor 488-goat anti-human antibody and a cell impermeable dye to gate live cells. The median fluorescence intensity (MFI) of viable cells was measured by flow cytometry and the data were analyzed using FlowJo software. Dose curves were fitted using a non-linear regression model; log (agonist) vs response-variable slope (four parameters).
VRDN-5000 Binds With High Affinity To IGF-1R On A549 Cells. As illustrated in FIG. 3A-C, VRDN-5000 binding to A549 cells was assessed by flow cytometry and found to have similar binding distribution as teprotumumab at three different concentrations.

Assay [2] concerns the target T1, IGF-1R on cells (A549 human lung …). Nature of the assay: cell-based or functional assay.
The target is the same in assay [3]. Nature of the assay: flow cytometry on HOCF cells, binding dose response curve. The protocol:
as §1
FIG. 5A-B illustrate VRDN-5000 binding to HOCF cells, which was assessed by flow cytometry and found to have largely similar binding as teprotumumab at three different concentrations.

T1 sequence (P08069 31-1367): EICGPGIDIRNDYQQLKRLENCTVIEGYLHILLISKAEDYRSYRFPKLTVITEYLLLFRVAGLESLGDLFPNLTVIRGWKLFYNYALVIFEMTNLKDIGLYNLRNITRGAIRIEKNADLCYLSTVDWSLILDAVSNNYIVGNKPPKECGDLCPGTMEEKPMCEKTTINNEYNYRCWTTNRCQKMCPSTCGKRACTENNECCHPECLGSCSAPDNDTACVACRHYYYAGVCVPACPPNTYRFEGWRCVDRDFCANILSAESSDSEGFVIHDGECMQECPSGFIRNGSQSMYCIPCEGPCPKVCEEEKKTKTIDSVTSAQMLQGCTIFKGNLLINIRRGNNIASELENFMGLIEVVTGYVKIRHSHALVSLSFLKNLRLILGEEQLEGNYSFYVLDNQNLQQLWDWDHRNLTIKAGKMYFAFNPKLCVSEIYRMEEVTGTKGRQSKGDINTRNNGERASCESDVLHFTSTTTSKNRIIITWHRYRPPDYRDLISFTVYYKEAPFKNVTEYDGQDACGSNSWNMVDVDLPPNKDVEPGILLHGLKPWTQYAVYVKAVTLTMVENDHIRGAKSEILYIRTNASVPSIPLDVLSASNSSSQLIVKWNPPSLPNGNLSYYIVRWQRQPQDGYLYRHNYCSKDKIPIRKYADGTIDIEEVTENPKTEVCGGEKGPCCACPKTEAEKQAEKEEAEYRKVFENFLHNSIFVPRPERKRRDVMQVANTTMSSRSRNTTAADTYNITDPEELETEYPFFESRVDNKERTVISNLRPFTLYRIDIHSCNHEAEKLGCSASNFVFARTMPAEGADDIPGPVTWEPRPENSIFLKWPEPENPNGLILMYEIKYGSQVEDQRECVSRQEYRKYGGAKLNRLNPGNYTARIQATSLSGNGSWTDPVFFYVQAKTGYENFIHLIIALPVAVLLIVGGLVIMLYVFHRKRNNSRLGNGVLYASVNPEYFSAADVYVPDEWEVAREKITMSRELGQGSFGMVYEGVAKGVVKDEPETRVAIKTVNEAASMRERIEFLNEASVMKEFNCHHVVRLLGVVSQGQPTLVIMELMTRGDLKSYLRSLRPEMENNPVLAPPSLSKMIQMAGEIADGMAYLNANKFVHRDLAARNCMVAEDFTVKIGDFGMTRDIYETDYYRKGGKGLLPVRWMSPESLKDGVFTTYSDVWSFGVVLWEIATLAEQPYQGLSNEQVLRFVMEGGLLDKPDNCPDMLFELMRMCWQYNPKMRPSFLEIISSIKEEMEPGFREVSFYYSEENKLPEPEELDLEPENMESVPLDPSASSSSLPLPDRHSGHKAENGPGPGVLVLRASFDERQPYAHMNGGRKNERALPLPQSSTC

B1: VRDN-5000 (antibody, human IgG1, kappa)
heavy: not shown
light: DVVMTQTPLSLPVSLGDPASISCRSSQSIVHSNVNTYLEWYLQKPGQSPRLLIYKVSNRFSGVPDRFSGSGAGTDFTLRISRVEAEDLGIYYCFQGSHVPPTFGGGTKLEIKRTVAAPSVFIFPPSDEQLKSGTASVVCLLNNFYPREAKVQWKVDNALQSGNSQESVTEQDSKDSTYSLSSTLTLSKADYEKHKVYACEVTHQGLSSPVTKSFNRGEC
notes: neither was used; also called VRDN-001
Molecule B1 returned an EC50 in assay [1] of 0.1 nM. Also, in assay [2], the “IC50 of IGF-1 stimulated receptor phosphorylation on A549 cells (pIGF-1R ELISA)” value worked out at 0.09 nM and the “IC50 of IGF-1 stimulated receptor phosphorylation on HOCF cells (pIGF-1R ELISA)” value came out at 0.09 nM. Besides, the 50% effective concentration (EC50) in assay [3] amounted to 0.4 nM.
